Experimental data as given in patent publication CN115785273A (DONGGUAN PENGZHI BIOTECHNOLOGY CO LTD, dated 2023).

Target: T1, PG I蛋白(fitzgerald，30R-AP038) (UniProt P0DJD8 16-388)
T1 construct: Commercial antigen; Pepsinogen I is a group of isozymogens (PGA3/PGA4/PGA5); also called 胃蛋白酶原I; HPG I
Experiment: BLI, AMC sensors, antibody captured at 10 μg/mL, PG I protein in serial dilution in PBST

T1 sequence (P0DJD8 16-388): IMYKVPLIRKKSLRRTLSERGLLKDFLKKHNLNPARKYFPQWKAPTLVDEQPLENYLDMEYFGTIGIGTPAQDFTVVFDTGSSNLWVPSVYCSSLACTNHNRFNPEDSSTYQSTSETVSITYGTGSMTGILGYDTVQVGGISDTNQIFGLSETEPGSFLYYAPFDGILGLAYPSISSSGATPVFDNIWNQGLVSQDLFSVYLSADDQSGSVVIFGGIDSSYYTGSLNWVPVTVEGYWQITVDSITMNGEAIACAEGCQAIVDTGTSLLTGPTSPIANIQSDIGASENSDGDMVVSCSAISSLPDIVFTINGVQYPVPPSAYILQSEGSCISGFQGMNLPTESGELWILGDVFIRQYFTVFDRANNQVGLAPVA

| Kd | koff | kon | Molecule |
| --- | --- | --- | --- |
| 0.297 nM | 0.000273 s⁻¹ | 919000 M⁻¹ s⁻¹ | 对照抗体 (antibody) |
| 0.0309 nM | 2.85e-05 s⁻¹ | 921000 M⁻¹ s⁻¹ | Anti-HPG I 8C20单克隆抗体 (antibody, V domains shown) VH: QVQLQQPGAELVRPGASVKLSCKASDYTFTSYWMNWVKQRPEQGLEWIGRIDPYDSETHYNQKFKDKAILTVDKSSSTAYMQLSSLTSEDSAVYYCARFSMVVAVYAMDYWGQGTSVTVSS VL: DIQMTQSPASLSASVGETVTITCRASGNIHNYLAWFQQKQGKSPQILVYYAKTLADGVPSRFSGSGSGTQFSLKINSLQPEDFGSYYCQHFWSTPWTFGGGTKLEIK |
